Measurements: PMC5477170, “Biochemical characterization of an enantioselective esterase from Brevundimonas sp. LY-2” (Microbial Cell Factories, 2017)

Columns and labels:
[1] = tested on: T1, CC(=O)Oc1ccc([N+](=O)[O-])cc1; test: p-nitrophenyl ester hydrolysis, Lineweaver-Burk; type: biochemical, Brevundimonas sp. LY-2; conditions: pH and temperature not stated for this assay
T1 construct: signal peptide (residues 1-28) removed; C-terminal His-tag, pET-29a(+); E. coli BL21(DE3); full ORF 306 aa; predicted 29,451 Da, SDS-PAGE ~30 kDa; gel filtration 62 kDa, dimer; N-terminus from primer (M)ATAEP
Text: (§1) p-nitrophenyl ester hydrolysis, Lineweaver-Burk on LacH

[2] = tested on: T2, CCCC(=O)Oc1ccc([N+](=O)[O-])cc1; test: p-nitrophenyl ester hydrolysis, Lineweaver-Burk; type: biochemical, Brevundimonas sp. LY-2; conditions: pH and temperature not stated for this assay
T2 construct: signal peptide (residues 1-28) removed; C-terminal His-tag, pET-29a(+); E. coli BL21(DE3); full ORF 306 aa; predicted 29,451 Da, SDS-PAGE ~30 kDa; gel filtration 62 kDa, dimer; N-terminus from primer (M)ATAEP
Text: as §1

[3] = tested on: T3, CCCCCC(=O)Oc1ccc([N+](=O)[O-])cc1; test: p-nitrophenyl ester hydrolysis, Lineweaver-Burk; type: biochemical, Brevundimonas sp. LY-2; conditions: pH and temperature not stated for this assay
T3 construct: signal peptide (residues 1-28) removed; C-terminal His-tag, pET-29a(+); E. coli BL21(DE3); full ORF 306 aa; predicted 29,451 Da, SDS-PAGE ~30 kDa; gel filtration 62 kDa, dimer; N-terminus from primer (M)ATAEP
Text: as §1

[4] = tested on: T4, CCCCCCCC(=O)Oc1ccc([N+](=O)[O-])cc1; test: p-nitrophenyl ester hydrolysis, Lineweaver-Burk; type: biochemical, Brevundimonas sp. LY-2; conditions: pH and temperature not stated for this assay
T4 construct: signal peptide (residues 1-28) removed; C-terminal His-tag, pET-29a(+); E. coli BL21(DE3); full ORF 306 aa; predicted 29,451 Da, SDS-PAGE ~30 kDa; gel filtration 62 kDa, dimer; N-terminus from primer (M)ATAEP
Text: as §1

[5] = tested on: CCOC(=O)C(C)OC(=O)c1cc(Oc2ccc(C(F)(F)F)cc2Cl)ccc1[N+](=O)[O-]; test: purified protein; conditions: 50 mM sodium phosphate, pH 7.0, 40 °C

**Q.** What does the source list for LacH (Brevundimonas sp. LY-2)?
**A.** Km [1]: 147 ± 8 µM; kcat [1]: 8.39 ± 0.28 s⁻¹; kcat/Km [1]: 50100 M⁻¹ s⁻¹; Km [2]: 185 ± 9 µM; kcat [2]: 7.48 ± 0.45 s⁻¹; kcat/Km [2]: 40400 M⁻¹ s⁻¹; Km [3]: 208 ± 12 µM; kcat [3]: 3.47 ± 0.13 s⁻¹; kcat/Km [3]: 16700 M⁻¹ s⁻¹; Km [4]: 335 ± 16 µM; kcat [4]: 0.767 ± 0.06 s⁻¹; kcat/Km [4]: 2290 M⁻¹ s⁻¹; Km [5]: 67 ± 2 µM; kcat [5]: 0.87 ± 0.09 s⁻¹; kcat/Km [5]: 12900 M⁻¹ s⁻¹
